The record followed here is paper doi:10.1101/2021.10.07.463402.

This experiment concerns the target SARS-CoV-2 spike glycoprotein (S), wild type (SARS-CoV-2 strain Wuhan-Hu-1). The experiment in a line: native gel or EMSA. Background: In EMSA bound probe runs differently from free probe, usually more slowly.

In turn, “SARS-CoV-2 spike glycoprotein (S), wild type (natural protein)” gave a stoichiometry N of 3.

The term stoichiometry N denotes a count of units in the complex or per binding partner.
